Earlier results on one substance are cited in article PMC3362950.

The Kd is the concentration at which binding is half-saturated.

The series concerns the target Kv1.3 (UniProt P22001).
Chain of UniProt P22001 (P22001 whole entry): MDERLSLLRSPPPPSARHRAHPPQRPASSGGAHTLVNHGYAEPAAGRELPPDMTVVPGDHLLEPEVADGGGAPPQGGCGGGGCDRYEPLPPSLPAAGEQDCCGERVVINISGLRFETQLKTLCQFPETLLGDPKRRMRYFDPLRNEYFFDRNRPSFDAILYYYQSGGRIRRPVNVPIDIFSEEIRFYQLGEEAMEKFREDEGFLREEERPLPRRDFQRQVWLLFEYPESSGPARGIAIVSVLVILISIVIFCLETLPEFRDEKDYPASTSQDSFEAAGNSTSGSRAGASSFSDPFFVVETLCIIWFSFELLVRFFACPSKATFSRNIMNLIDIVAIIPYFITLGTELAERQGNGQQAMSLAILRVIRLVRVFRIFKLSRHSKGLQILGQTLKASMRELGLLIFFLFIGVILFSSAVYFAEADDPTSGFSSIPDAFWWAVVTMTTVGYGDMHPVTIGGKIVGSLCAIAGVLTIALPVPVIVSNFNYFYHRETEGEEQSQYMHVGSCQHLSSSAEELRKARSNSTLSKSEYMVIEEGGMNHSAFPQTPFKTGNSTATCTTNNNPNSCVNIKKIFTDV

Regarding KTX (from UniProt P24662), the Kd was 0.01 nM.
